Test results published in US6358897B1, “Alkyl trypsin compositions and methods of use in contact lens cleaning and disinfecting systems” (Alcon Laboratories, Inc., priority 1996, dated 2002).

System: azocasein
Experiment: Stability of Et-trypsin and trypsin in a disinfecting composition (Example 2B), azocasein method
Type: physicochemical
Settings: 37° C., Example 2B composition, 50 μg/ml
Experimental: Azocasein Method The following solutions are used in this assay: 1) Buffer solution: 0.05 M sodium phosphate buffer containing 0.9% sodium chloride, pH 7.6. 2) Substrate solution: 2 mg/ml azocasein in the buffer solution mentioned above. The assay is initiated by mixing 1 ml of an appropriately diluted (such that the enzyme activity is in the range of standard curve) enzyme composition in phosphate buffer with 2 ml of azocasein substrate solution (2 mg/ml). After incubation at 37° C. for 20 minutes, the mixture is removed from the incubator and 1 ml of trichloroacetic acid to (14% w/v) is added to stop the enzyme reaction. The mixture is vortexed well and allowed to stand at room temperature for 20 minutes. After centrifuging at 2500 rpm (with a Beckman GS-6R Centrifuge) for 15 minutes, the supernatant is filtered with a serum sampler. 2 ml of the clear yellow filtrate is then adjusted to a neutral pH with 2 ml of 0.5 N sodium hydroxide and the absorbance of 440 nm wavelength light is measured with a spectrophotometer. The amount of azocasein hydrolyzed is calculated based on a standard curve of known concentrations of azocasein solution developed under identical conditions. An enzyme activity unit (“AZ U”) is defined as that amount of enzyme which hydrolyzes 1 μg of azocasein substrate/minute at 37° C. The following is an example of the stability of Et-trypsin or Me-trypsin in a disinfecting composition of the present invention as compared to an analogous composition containing trypsin. The enzymes were solubilized in the Example 2B composition. The compositions were stored at 37° or 50° C. for 8 days or 30 hours, respectively. At various time points, enzyme activity was assayed using the azocasein method.

Q: What does the source list for ethyl trypsin [Et-Trypsin]?
A: % Activity Remaining (1 Hour): 100%; % Activity Remaining (2 Hours): 100%; % Activity Remaining (4 Hours): 95.2%; % Activity Remaining (6 Hours): 99.3%; % Activity Remaining (8 Hours): 97.9%; % Activity Remaining (1 day): 89.7%; % Activity Remaining (2 days): 82.5%; % Activity Remaining (4 days): 76.4%; % Activity Remaining (8 days): 65.6%
